Target: T1, full-length p63 (GST-fusion) (human, UniProt Q9H3D4 1-680)
T1 sequence (looked up): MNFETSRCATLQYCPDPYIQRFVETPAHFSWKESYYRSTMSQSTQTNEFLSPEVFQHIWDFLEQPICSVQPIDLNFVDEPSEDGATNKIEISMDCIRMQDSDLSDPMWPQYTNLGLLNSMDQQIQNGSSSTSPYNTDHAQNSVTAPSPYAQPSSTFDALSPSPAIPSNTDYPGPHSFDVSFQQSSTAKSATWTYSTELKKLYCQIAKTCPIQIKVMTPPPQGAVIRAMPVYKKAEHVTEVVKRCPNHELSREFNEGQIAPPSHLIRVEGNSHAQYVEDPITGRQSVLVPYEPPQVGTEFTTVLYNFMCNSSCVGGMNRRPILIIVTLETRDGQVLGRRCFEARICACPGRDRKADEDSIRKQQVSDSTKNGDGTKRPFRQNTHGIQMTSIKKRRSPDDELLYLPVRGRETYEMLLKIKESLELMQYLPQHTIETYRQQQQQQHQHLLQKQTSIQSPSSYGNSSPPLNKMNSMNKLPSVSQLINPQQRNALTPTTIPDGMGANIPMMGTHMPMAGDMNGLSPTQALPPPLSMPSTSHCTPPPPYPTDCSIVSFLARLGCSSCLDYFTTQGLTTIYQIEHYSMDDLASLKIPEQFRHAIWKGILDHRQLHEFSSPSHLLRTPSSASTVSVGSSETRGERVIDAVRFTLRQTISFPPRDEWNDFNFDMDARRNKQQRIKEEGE
Assay: atomic force spectroscopy

binding result: binds
B1: p28 (peptide)
peptide: LSTAADMQGVVTDGMASGLDKDYLKPDD

Reference: PMC3986302 (International Journal of Nanomedicine, 2014)
